According to patent publication US20240101686A1:
Like-named read-outs stand apart in the source and are kept apart here.

Key:
Details in all cases: remark: other sources report otherwise
[1] = target: human EGFR endogenously expressed on A431 cells (human), P00533
[2] = target: human EGFR on cells (human), P00533
[3] = target: human EGFR on cells (human), P00533; remark: listed apart in the source
[4] = target: human EGFR on cells (human), P00533; remark: listed apart in the source

Max MFI [1]: 712 | Average fluorescence intensity [2]: 528 | Max MFI [3]: 143 | Max MFI [4]: 88
B1: 30D8-hIgG1 (antibody, V domains shown)
VH: EVQLVESGGGLVKPGGSLRLSCEASGFTFSDAWMSWVRQAPGKGLEWVGRIKSKTDGGTTDYVVPLNGRFIISRDDSRNTLYLQLNNLKTEDTAVYYCTTVPGSYGYWGQGTLVTVSS
VL: DIVMTQSPLSLPVTPGEPASISCRSSQSLLHNKRNNYLDWFLQKPGQSPQLLIYLASNRASGVPDRFSGGGSGTDFTLKISRVEAEDVGVYYCMQAQQTPITFGQGTRLEIK
